# Assay results taken from patent US20200283478A1 (Genentech, published 2020).
# Bridge positions count the residues as written; N and C are the ends. Square brackets hold non-standard residues; d marks the D form. Ends that are not written are not given here. Trp(6-F) = N[C@@H](Cc1c[nH]c2cc(F)ccc12)C(=O)O; hArg = N=C(N)NCCCC[C@H](N)C(=O)O
# How the values were obtained:
# PCSK9Δhelix = molecular target: T1, PCSK9Δhelix (human, Chemically biotinylated in the phage ELISAs; the site is not given.); test: phage spot ELISA
# T1 construct: construct M1-Q692 with engineered TEV site, cleaved by TEV; also called His-PCSK9Δhelix; open groove PCSK9Δhelix
# [1] = molecular target: T2, proprotein convertase subtilisin/kexin type 9 (PCSK9) (human, UniProt Q8NBP7 31-692); test: phage spot ELISA
# T2 construct: His-tagged full-length PCSK9 in TR-FRET and SPR, biotinylated in phage ELISA; secreted protein is autoprocessed (prodomain plus catalytic/CRD chain starting at S153); also called rec.PCSK9; His-PCSK9
# His-tagged PCSK9Δhelix = molecular target: T3, His-tagged PCSK9Δhelix (human, UniProt Q8NBP7 31-152; Q8NBP7 168-692); test: TR-FRET competition; His-PCSK9Δhelix, competitor Ab20
# T3 construct: Construct M1-Q692 with engineered TEV site, cut by TEV protease; new N-terminus of the catalytic domain is S-A168; also called His-PCSK9Δhelix
# Method: (§1) Signal generation in the PCSK9 binding assays was dependent upon the binding interaction to bring into close proximity the His-tag on the PCSK9 and the Fc-tag on the ligand. Anti-His-APC was bound to the His-tag, and anti-Fc-europium was bound to the Fc-tag.
# (§2) Compounds were solubilized and dilutions were prepared in DMSO. […] The plate was centrifuged to mix the well contents and allowed to incubate for 30 min. […] The normalized TR-FRET ratios were plotted as a function of the compound concentrations, and the IC₅₀ values were determined using a 4-parameter logistic regression.
# [2] = molecular target: T4, His-tagged, full-length PCSK9 (human, UniProt Q8NBP7 31-692); test: TR-FRET competition; His-PCSK9, competitor EGF(A)-Fc
# T4 construct: The secreted protein is autocleaved into a prodomain and a catalytic/Cys-rich chain that starts at S153; also called His-PCSK9
# T4 sequence (Q8NBP7 other isoform, or with tags, fused parts or gaps limits assumed): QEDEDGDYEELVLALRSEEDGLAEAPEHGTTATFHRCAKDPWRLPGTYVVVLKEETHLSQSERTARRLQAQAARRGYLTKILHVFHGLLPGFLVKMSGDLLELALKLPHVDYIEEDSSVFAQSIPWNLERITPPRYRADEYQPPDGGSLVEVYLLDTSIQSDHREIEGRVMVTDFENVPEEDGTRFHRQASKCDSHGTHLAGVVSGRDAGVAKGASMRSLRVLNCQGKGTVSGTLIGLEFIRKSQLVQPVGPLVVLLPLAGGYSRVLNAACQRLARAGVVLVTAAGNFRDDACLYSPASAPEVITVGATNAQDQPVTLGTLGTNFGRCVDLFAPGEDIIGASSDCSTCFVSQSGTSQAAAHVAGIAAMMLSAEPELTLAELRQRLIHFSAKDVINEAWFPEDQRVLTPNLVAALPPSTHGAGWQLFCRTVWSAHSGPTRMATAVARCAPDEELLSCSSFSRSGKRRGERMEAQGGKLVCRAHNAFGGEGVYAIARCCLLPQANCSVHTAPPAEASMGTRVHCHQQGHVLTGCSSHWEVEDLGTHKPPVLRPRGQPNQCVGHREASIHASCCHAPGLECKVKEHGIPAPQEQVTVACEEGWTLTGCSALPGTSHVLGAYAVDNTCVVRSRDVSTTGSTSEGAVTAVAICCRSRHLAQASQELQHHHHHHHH
# Method: as §1, §2
# T3 sequence (Q8NBP7 31-152, stated change not applied, chain 1 of 2): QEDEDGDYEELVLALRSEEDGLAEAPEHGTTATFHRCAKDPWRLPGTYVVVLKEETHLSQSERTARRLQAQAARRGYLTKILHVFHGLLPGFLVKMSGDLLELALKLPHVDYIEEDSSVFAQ
# T3 sequence (Q8NBP7 other isoform, or with tags, fused parts or gaps mutant, chain 2 of 2): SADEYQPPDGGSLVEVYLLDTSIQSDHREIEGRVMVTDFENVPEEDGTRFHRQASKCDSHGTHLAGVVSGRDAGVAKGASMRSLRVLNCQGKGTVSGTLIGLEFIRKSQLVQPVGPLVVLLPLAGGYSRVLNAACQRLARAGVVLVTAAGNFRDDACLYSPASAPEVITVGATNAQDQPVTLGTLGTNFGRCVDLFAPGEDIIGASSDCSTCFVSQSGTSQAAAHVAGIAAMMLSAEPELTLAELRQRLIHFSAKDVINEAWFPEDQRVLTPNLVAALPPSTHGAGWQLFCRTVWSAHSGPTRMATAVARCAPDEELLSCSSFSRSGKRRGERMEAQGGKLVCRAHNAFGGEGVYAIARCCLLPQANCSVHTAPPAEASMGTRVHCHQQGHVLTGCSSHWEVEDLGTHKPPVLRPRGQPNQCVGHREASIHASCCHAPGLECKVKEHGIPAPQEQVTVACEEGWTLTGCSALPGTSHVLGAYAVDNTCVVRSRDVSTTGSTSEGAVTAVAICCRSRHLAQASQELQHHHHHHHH
# T1 sequence (prodomain, as listed by the source mutant limits assumed, chain 1 of 2): as the sequence (Q8NBP7 31-152, stated change not applied, chain 1 of 2) above
# T1 sequence (chain, as listed by the source mutant limits assumed, chain 2 of 2): as the sequence (Q8NBP7 other isoform, or with tags, fused parts or gaps mutant, chain 2 of 2) above
# T2 sequence (Q8NBP7 other isoform, or with tags, fused parts or gaps limits assumed): as the sequence (Q8NBP7 other isoform, or with tags, fused parts or gaps limits assumed) above
Binder,ELISA (PCSK9Δhelix),s/n ratio (PCSK9Δhelix),ELISA [1],s/n ratio [1],IC50 (His-tagged PCSK9Δhelix),IC50 [2]
TAFTSWEEYLDWVGSGDCNLWGDDGKYRLCF [SEQ ID NO 333],2.81,23,2.72,23.6,,
TAFTSWEEYLDWVGSGCVKVGLSWIGDCNS [SEQ ID NO 334],2.74,25.1,2.66,23.9,,
TAFTSWEEYLDWVGSGGVLGVGGMWIA [SEQ ID NO 335],2.61,24.4,1.45,12.8,,
TAFTSWEEYLDWVGSGSYRGAWSVFGGSTD [SEQ ID NO 336],2.69,17.2,2.79,19.5,,
TAFTSWEEYLDWVGSGCMEAWQCSLA [SEQ ID NO 337],,,2.73,24.6,,
"WNLV[hArg]IGLLR (also: further groups not given here, Structure printed only as a drawing) [Compound 215]",,,,,0.48 µM,7 µM
"WNLV[hArg]IGLLR (also: further groups not given here, Structure printed only as a drawing) [Compound 216]",,,,,0.3 µM,6 µM
"WNLV[hArg]IGLLR (also: further groups not given here, Structure printed only as a drawing) [Compound 217]",,,,,0.39 µM,4.1 µM
"WNLV[hArg]IGLLR (also: further groups not given here, Structure printed only as a drawing) [Compound 218]",,,,,0.26 µM,5 µM
"WNLV[hArg]IGLLR (also: further groups not given here, Structure printed only as a drawing) [Compound 219]",,,,,0.68 µM,9.9 µM
"WNLV[hArg]IGLLR (also: further groups not given here, Structure printed only as a drawing) [Compound 220]",,,,,0.91 µM,37 µM
"WNLV[hArg]IGLLR (also: further groups not given here, Structure printed only as a drawing) [Compound 221]",,,,,0.65 µM,9.5 µM
"WNLV[hArg]IGLLR (also: further groups not given here, Structure printed only as a drawing) [Compound 222]",,,,,1.4 µM,21 µM
"WNLV[hArg]IGLLR (also: further groups not given here, Structure printed only as a drawing) [Compound 223]",,,,,1.4 µM,21 µM
"WNLV[hArg]IGLLR (also: further groups not given here, Structure printed only as a drawing) [Compound 224]",,,,,0.53 µM,7 µM
"WNLV[hArg]IGLLR (also: further groups not given here, Structure printed only as a drawing) [Compound 225]",,,,,1.8 µM,27 µM
"WNLV[hArg]IGLLR (also: further groups not given here, Structure printed only as a drawing) [Compound 226]",,,,,0.35 µM,6.2 µM
Ac-ESYPGWNLV[hArg]IGLLR-NH2 (SMILES CC[C@H](C)[C@H](NC(=O)[C@H](CCCCNC(=N)N)NC(=O)[C@@H](NC(=O)[C@H](CC(C)C)NC(=O)[C@H](CC(N)=O)NC(=O)[C@H](Cc1c[nH]c2ccccc12)NC(=O)CNC(=O)[C@@H]1CCCN1C(=O)[C@H](Cc1ccc(O)cc1)NC(=O)[C@H](CO)NC(=O)[C@H](CCC(=O)O)NC(C)=O)C(C)C)C(=O)NCC(=O)N[C@@H](CC(C)C)C(=O)N[C@@H](CC(C)C)C(=O)N[C@@H](CCCNC(=N)N)C(N)=O) [Compound 231],,,,,17 µM,1.6 µM
Ac-ESFPGWNLV[hArg]IGLLR-NH2 (SMILES CC[C@H](C)[C@H](NC(=O)[C@H](CCCCNC(=N)N)NC(=O)[C@@H](NC(=O)[C@H](CC(C)C)NC(=O)[C@H](CC(N)=O)NC(=O)[C@H](Cc1c[nH]c2ccccc12)NC(=O)CNC(=O)[C@@H]1CCCN1C(=O)[C@H](Cc1ccccc1)NC(=O)[C@H](CO)NC(=O)[C@H](CCC(=O)O)NC(C)=O)C(C)C)C(=O)NCC(=O)N[C@@H](CC(C)C)C(=O)N[C@@H](CC(C)C)C(=O)N[C@@H](CCCNC(=N)N)C(N)=O) [Compound 227],,,,,24 µM,2.5 µM
Ac-DSYPGWNLV[hArg]IGLLR-NH2 (SMILES CC[C@H](C)[C@H](NC(=O)[C@H](CCCCNC(=N)N)NC(=O)[C@@H](NC(=O)[C@H](CC(C)C)NC(=O)[C@H](CC(N)=O)NC(=O)[C@H](Cc1c[nH]c2ccccc12)NC(=O)CNC(=O)[C@@H]1CCCN1C(=O)[C@H](Cc1ccc(O)cc1)NC(=O)[C@H](CO)NC(=O)[C@H](CC(=O)O)NC(C)=O)C(C)C)C(=O)NCC(=O)N[C@@H](CC(C)C)C(=O)N[C@@H](CC(C)C)C(=O)N[C@@H](CCCNC(=N)N)C(N)=O) [Compound 230],,,,,24 µM,2.3 µM
Ac-SFAFPGWNLV[hArg]IGLLR-NH2 (SMILES CC[C@H](C)[C@H](NC(=O)[C@H](CCCCNC(=N)N)NC(=O)[C@@H](NC(=O)[C@H](CC(C)C)NC(=O)[C@H](CC(N)=O)NC(=O)[C@H](Cc1c[nH]c2ccccc12)NC(=O)CNC(=O)[C@@H]1CCCN1C(=O)[C@H](Cc1ccccc1)NC(=O)[C@H](C)NC(=O)[C@H](Cc1ccccc1)NC(=O)[C@H](CO)NC(C)=O)C(C)C)C(=O)NCC(=O)N[C@@H](CC(C)C)C(=O)N[C@@H](CC(C)C)C(=O)N[C@@H](CCCNC(=N)N)C(N)=O) [Compound 228],,,,,13 µM,1.3 µM
Ac-SFAFPGWNLK[hArg]IGLLR-NH2 (SMILES CC[C@H](C)[C@H](NC(=O)[C@H](CCCCNC(=N)N)NC(=O)[C@H](CCCCN)NC(=O)[C@H](CC(C)C)NC(=O)[C@H](CC(N)=O)NC(=O)[C@H](Cc1c[nH]c2ccccc12)NC(=O)CNC(=O)[C@@H]1CCCN1C(=O)[C@H](Cc1ccccc1)NC(=O)[C@H](C)NC(=O)[C@H](Cc1ccccc1)NC(=O)[C@H](CO)NC(C)=O)C(=O)NCC(=O)N[C@@H](CC(C)C)C(=O)N[C@@H](CC(C)C)C(=O)N[C@@H](CCCNC(=N)N)C(N)=O) [Compound 232],,,,,13 µM,0.93 µM
Ac-MESFPGWNLV[hArg]IGLLR-NH2 (SMILES CC[C@H](C)[C@H](NC(=O)[C@H](CCCCNC(=N)N)NC(=O)[C@@H](NC(=O)[C@H](CC(C)C)NC(=O)[C@H](CC(N)=O)NC(=O)[C@H](Cc1c[nH]c2ccccc12)NC(=O)CNC(=O)[C@@H]1CCCN1C(=O)[C@H](Cc1ccccc1)NC(=O)[C@H](CO)NC(=O)[C@H](CCC(=O)O)NC(=O)[C@H](CCSC)NC(C)=O)C(C)C)C(=O)NCC(=O)N[C@@H](CC(C)C)C(=O)N[C@@H](CC(C)C)C(=O)N[C@@H](CCCNC(=N)N)C(N)=O) [Compound 229],,,,,8.1 µM,0.81 µM
Ac-MESFPGWNLK[hArg]IGLLR-NH2 (SMILES CC[C@H](C)[C@H](NC(=O)[C@H](CCCCNC(=N)N)NC(=O)[C@H](CCCCN)NC(=O)[C@H](CC(C)C)NC(=O)[C@H](CC(N)=O)NC(=O)[C@H](Cc1c[nH]c2ccccc12)NC(=O)CNC(=O)[C@@H]1CCCN1C(=O)[C@H](Cc1ccccc1)NC(=O)[C@H](CO)NC(=O)[C@H](CCC(=O)O)NC(=O)[C@H](CCSC)NC(C)=O)C(=O)NCC(=O)N[C@@H](CC(C)C)C(=O)N[C@@H](CC(C)C)C(=O)N[C@@H](CCCNC(=N)N)C(N)=O) [Compound 233],,,,,50 µM,3.1 µM
"WNLV[hArg]IG-NH2 (N-terminus assumed; SMILES CC[C@H](C)[C@H](NC(=O)[C@H](CCCCNC(=N)N)NC(=O)[C@@H](NC(=O)[C@H](CC(C)C)NC(=O)[C@H](CC(N)=O)NC(=O)[C@@H](N)Cc1c[nH]c2ccccc12)C(C)C)C(=O)NCC(N)=O, also called WNLV(homoR)IG-NH2) [Compound 236]",,,,,22 µM,≥ 50 µM
"WNLV[hArg]IGQR (also: further groups not given here, Structure printed only as a drawing) [Compound 239]",,,,,1.2 µM,32 µM
"WNLV[hArg]IGNR (also: further groups not given here, Structure printed only as a drawing) [Compound 240]",,,,,0.92 µM,31 µM
Ac-TVFTS[Trp(6-F)]EEYLDWVGSGCRLPWNLQRIGLPC-NH2 (disulfide 17-30 (inferred)) [Compound 241],,,,,0.1 µM,1.6 µM
